For the series, the target named is HapR (Vibrio cholerae E7946 (El Tor), UniProt Q4F6W7 1-203). The experiment in a line: EMSA. For orientation: In EMSA bound probe runs differently from free probe, usually more slowly.

B1: HapR BS 1 probe (32 bp) (dsDNA)
DNA 1: TAGGTTTGTTAGTGTTTACTTACTTATTTGGC
DNA 2: GCCAAATAAGTAAGTAAACACTAACAAACCTA
modifications: Cy5-dCTP added to the 3' end of one strand by TdT (strand not stated)
For the molecule B1, the binding result is reported as “binds”.

B2: HapR BS 2 probe (32 bp) (dsDNA)
DNA 1: AATTGCAATTGATAAATTTCTTGGCTAGGTGT
DNA 2: ACACCTAGCCAAGAAATTTATCAATTGCAATT
modifications: Cy5-dCTP added to the 3' end of one strand by TdT (strand not stated)
In the case of B2, the binding result is listed as “binds”.
